{"source": "IntAct's records for PubMed 31515488", "parents": {"B1": {"name": "Protein SPMIP9 (Homo sapiens), Q96LM6 (parent)", "chain": "MAGVKYPGQDPVDLDIYQSSHMVDYQPYRKHKYSRVTPQEQAKLDAQLRDKEFYRPIPNPNPKLTDGYPAFKRPHMTAKDLGLPGFFPSQEHEATREDERKFTSTCHFTYPASHDLHLAQGDPNQVLQSADFPCLVDPKHQPAAEMAKGYLLLPGCPCLHCHIVKVPILNRWGPLMPFYQ", "partner": "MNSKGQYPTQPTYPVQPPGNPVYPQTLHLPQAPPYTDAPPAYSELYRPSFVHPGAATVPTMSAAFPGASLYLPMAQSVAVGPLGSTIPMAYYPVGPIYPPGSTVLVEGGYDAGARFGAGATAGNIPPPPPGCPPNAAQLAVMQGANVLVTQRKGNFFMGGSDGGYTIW"}, "B2": {"name": "LIM/homeobox protein Lhx4 (Homo sapiens), Q969G2 (parent)", "chain": "MMQSATVPAEGAVKGLPEMLGVPMQQIPQCAGCNQHILDKFILKVLDRHWHSSCLKCADCQMQLADRCFSRAGSVYCKEDFFKRFGTKCTACQQGIPPTQVVRKAQDFVYHLHCFACIICNRQLATGDEFYLMEDGRLVCKEDYETAKQNDDSEAGAKRPRTTITAKQLETLKNAYKNSPKPARHVREQLSSETGLDMRVVQVWFQNRRAKEKRLKKDAGRHRWGQFYKSVKRSRGSSKQEKESSAEDCGVSDSELSFREDQILSELGHTNRIYGNVGDVTGGQLMNGSFSMDGTGQSYQDLRDGSPYGIPQSPSSISSLPSHAPLLNGLDYTVDSNLGIIAHAGQGVSQTLRAMAGGPTSDISTGSSVGYPDFPTSPGSWLDEMDHPPF", "partner": "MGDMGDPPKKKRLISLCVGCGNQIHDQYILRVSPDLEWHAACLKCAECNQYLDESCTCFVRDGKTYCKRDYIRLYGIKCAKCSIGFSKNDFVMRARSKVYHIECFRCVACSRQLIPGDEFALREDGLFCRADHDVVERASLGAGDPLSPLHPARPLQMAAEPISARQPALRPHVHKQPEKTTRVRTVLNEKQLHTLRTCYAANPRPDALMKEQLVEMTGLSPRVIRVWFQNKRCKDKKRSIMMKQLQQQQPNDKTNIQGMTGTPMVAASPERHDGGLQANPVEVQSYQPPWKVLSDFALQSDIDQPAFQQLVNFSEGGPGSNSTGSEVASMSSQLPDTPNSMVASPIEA"}, "B3": {"name": "Vacuolar protein sorting-associated protein 37B (Homo sapiens), Q9H9H4 (parent)", "chain": "MAGAGSEARFAGLSLVQLNELLEDEGQLTEMVQKMEETQNVQLNKEMTLASNRSLAEGNLLYQPQLDTLKARLTQKYQELQVLFEAYQIKKTKLDRQSSSASLETLLALLQAEGAKIEEDTENMAEKFLDGELPLDSFIDVYQSKRKLAHMRRVKIEKLQEMVLKGQRLPQALAPLPPRLPELAPTAPLPYPAPEASGPPAVAPRRIPPPPPPVPAGRLATPFTAAMSSGQAVPYPGLQCPPLPPRVGLPTQQGFSSQFVSPYPPPLPQRPPPRLPPHQPGFILQ", "partner": "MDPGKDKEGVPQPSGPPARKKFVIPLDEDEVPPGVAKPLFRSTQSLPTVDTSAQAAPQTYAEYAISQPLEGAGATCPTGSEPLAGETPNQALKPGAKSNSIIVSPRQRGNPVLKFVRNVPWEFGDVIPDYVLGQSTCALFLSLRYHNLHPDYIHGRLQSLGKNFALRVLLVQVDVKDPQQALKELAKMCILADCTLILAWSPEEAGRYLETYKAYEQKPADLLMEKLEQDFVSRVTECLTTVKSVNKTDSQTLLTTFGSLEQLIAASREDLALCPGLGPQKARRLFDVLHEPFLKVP"}, "B4": {"name": "Fructose-1,6-bisphosphatase 1 (Homo sapiens), P09467 (parent)", "chain": "MADQAPFDTDVNTLTRFVMEEGRKARGTGELTQLLNSLCTAVKAISSAVRKAGIAHLYGIAGSTNVTGDQVKKLDVLSNDLVMNMLKSSFATCVLVSEEDKHAIIVEPEKRGKYVVCFDPLDGSSNIDCLVSVGTIFGIYRKKSTDEPSEKDALQPGRNLVAAGYALYGSATMLVLAMDCGVNCFMLDPAIGEFILVDKDVKIKKKGKIYSLNEGYARDFDPAVTEYIQRKKFPPDNSAPYGARYVGSMVADVHRTLVYGGIFLYPANKKSPNGKLRLLYECNPMAYVMEKAGGMATTGKEAVLDVIPTDIHQRAPVILGSPDDVLEFLKVYEKHSAQ"}, "B5": {"name": "Progranulin (Homo sapiens), P28799 (parent)", "chain": "MWTLVSWVALTAGLVAGTRCPDGQFCPVACCLDPGGASYSCCRPLLDKWPTTLSRHLGGPCQVDAHCSAGHSCIFTVSGTSSCCPFPEAVACGDGHHCCPRGFHCSADGRSCFQRSGNNSVGAIQCPDSQFECPDFSTCCVMVDGSWGCCPMPQASCCEDRVHCCPHGAFCDLVHTRCITPTGTHPLAKKLPAQRTNRAVALSSSVMCPDARSRCPDGSTCCELPSGKYGCCPMPNATCCSDHLHCCPQDTVCDLIQSKCLSKENATTDLLTKLPAHTVGDVKCDMEVSCPDGYTCCRLQSGAWGCCPFTQAVCCEDHIHCCPAGFTCDTQKGTCEQGPHQVPWMEKAPAHLSLPDPQALKRDVPCDNVSSCPSSDTCCQLTSGEWGCCPIPEAVCCSDHQHCCPQGYTCVAEGQCQRGSEIVAGLEKMPARRASLSHPRDIGCDQHTSCPVGQTCCPSLGGSWACCQLPHAVCCEDRQHCCPAGYTCNVKARSCEKEVVSAQPATFLARSPHVGVKDVECGEGHFCHDNQTCCRDNRQGWACCPYRQGVCCADRRHCCPAGFRCAARGTKCLRREAPRWDAPLRDPALRQLL", "partner": "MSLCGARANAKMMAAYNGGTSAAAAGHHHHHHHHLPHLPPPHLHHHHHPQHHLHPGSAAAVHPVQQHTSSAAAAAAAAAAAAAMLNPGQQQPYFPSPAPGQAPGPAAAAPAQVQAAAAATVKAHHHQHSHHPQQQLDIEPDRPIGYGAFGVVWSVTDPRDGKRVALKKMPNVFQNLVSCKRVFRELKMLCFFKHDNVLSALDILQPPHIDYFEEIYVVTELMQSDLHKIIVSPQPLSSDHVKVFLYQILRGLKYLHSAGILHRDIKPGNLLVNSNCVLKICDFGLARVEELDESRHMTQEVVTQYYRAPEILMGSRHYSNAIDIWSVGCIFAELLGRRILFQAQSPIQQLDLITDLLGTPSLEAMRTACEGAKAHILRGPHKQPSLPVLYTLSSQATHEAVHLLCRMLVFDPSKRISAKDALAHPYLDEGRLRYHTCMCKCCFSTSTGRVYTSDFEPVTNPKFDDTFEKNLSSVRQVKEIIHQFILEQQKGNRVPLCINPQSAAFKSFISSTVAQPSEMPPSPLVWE"}, "B6": {"name": "Protein FAM9B (Homo sapiens), Q8IZU0 (parent)", "chain": "MAAWGKKHAGKDPVRDECEERNRFTETREEDVTDEHGEREPFAETDEHTGANTKKPEDTAEDLTAKRKRMKMDKTCSKTKNKSKHALRKKQLKRQKRDYIHSLKLLNVLEEYITDEQKEEEEEEGEEEELIRIFQEQQKKWQQYRSVRRERLKEMKLLRDQFVKALEDFEDLCDRVFSDEDSELDN", "partner": "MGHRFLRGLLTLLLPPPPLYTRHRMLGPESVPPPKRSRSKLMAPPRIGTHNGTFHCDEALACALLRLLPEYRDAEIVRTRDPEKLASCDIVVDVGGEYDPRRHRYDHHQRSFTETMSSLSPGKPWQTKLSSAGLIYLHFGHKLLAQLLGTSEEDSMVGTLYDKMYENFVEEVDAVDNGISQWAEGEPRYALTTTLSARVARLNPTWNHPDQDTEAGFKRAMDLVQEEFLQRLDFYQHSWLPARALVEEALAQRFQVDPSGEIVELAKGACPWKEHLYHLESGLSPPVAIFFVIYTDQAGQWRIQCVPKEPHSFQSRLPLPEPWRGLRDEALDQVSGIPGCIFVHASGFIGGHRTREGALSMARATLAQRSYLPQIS"}, "B7": {"name": "Kinesin-like protein KIF20A (Homo sapiens), O95235 (parent)", "chain": "MSQGILSPPAGLLSDDDVVVSPMFESTAADLGSVVRKNLLSDCSVVSTSLEDKQQVPSEDSMEKVKVYLRVRPLLPSELERQEDQGCVRIENVETLVLQAPKDSFALKSNERGIGQATHRFTFSQIFGPEVGQASFFNLTVKEMVKDVLKGQNWLIYTYGVTNSGKTHTIQGTIKDGGILPRSLALIFNSLQGQLHPTPDLKPLLSNEVIWLDSKQIRQEEMKKLSLLNGGLQEEELSTSLKRSVYIESRIGTSTSFDSGIAGLSSISQCTSSSQLDETSHRWAQPDTAPLPVPANIRFSIWISFFEIYNELLYDLLEPPSQQRKRQTLRLCEDQNGNPYVKDLNWIHVQDAEEAWKLLKVGRKNQSFASTHLNQNSSRSHSIFSIRILHLQGEGDIVPKISELSLCDLAGSERCKDQKSGERLKEAGNINTSLHTLGRCIAALRQNQQNRSKQNLVPFRDSKLTRVFQGFFTGRGRSCMIVNVNPCASTYDETLHVAKFSAIASQLVHAPPMQLGFPSLHSFIKEHSLQVSPSLEKGAKADTGLDDDIENEADISMYGKEELLQVVEAMKTLLLKERQEKLQLEMHLRDEICNEMVEQMQQREQWCSEHLDTQKELLEEMYEEKLNILKESLTSFYQEEIQERDEKIEELEALLQEARQQSVAHQQSGSELALRRSQRLAASASTQQLQEVKAKLQQCKAELNSTTEELHKYQKMLEPPPSAKPFTIDVDKKLEEGQKNIRLLRTELQKLGESLQSAERACCHSTGAGKLRQALTTCDDILIKQDQTLAELQNNMVLVKLDLRKKAACIAEQYHTVLKLQGQVSAKKRLGTNQENQQPNQQPPGKKPFLRNLLPRTPTCQSSTDCSPYARILRSRRSPLLKSGPFGKKY", "partner": "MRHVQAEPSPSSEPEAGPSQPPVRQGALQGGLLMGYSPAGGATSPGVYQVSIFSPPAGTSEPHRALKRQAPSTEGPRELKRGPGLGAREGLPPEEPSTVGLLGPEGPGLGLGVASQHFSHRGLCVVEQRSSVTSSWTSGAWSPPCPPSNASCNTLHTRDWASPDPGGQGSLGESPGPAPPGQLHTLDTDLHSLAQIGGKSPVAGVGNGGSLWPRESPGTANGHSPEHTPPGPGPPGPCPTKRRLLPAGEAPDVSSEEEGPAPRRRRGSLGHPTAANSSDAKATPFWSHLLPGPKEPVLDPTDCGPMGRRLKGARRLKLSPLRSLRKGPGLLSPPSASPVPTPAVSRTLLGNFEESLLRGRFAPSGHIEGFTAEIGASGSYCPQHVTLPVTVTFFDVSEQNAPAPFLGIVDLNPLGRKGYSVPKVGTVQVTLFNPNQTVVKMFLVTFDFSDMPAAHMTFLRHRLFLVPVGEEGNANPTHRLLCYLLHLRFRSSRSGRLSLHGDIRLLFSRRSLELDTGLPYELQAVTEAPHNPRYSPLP"}, "B8": {"name": "Ensconsin (Homo sapiens), Q14244 (parent)", "chain": "MAELGAGGDGHRGGDGAVRSETAPDSYKVQDKKNASSRPASAISGQNNNHSGNKPDPPPVLRVDDRQRLARERREEREKQLAAREIVWLEREERARQHYEKHLEERKKRLEEQRQKEERRRAAVEEKRRQRLEEDKERHEAVVRRTMERSQKPKQKHNRWSWGGSLHGSPSIHSADPDRRSVSTMNLSKYVDPVISKRLSSSSATLLNSPDRARRLQLSPWESSVVNRLLTPTHSFLARSKSTAALSGEAASCSPIIMPYKAAHSRNSMDRPKLFVTPPEGSSRRRIIHGTASYKKERERENVLFLTSGTRRAVSPSNPKARQPARSRLWLPSKSLPHLPGTPRPTSSLPPGSVKAAPAQVRPPSPGNIRPVKREVKVEPEKKDPEKEPQKVANEPSLKGRAPLVKVEEATVEERTPAEPEVGPAAPAMAPAPASAPAPASAPAPAPVPTPAMVSAPSSTVNASASVKTSAGTTDPEEATRLLAEKRRLAREQREKEERERREQEELERQKREELAQRVAEERTTRREEESRRLEAEQAREKEEQLQRQAEERALREREEAERAQRQKEEEARVREEAERVRQEREKHFQREEQERLERKKRLEEIMKRTRRTEATDKKTSDQRNGDIAKGALTGGTEVSALPCTTNAPGNGKPVGSPHVVTSHQSKVTVESTPDLEKQPNENGVSVQNENFEEIINLPIGSKPSRLDVTNSESPEIPLNPILAFDDEGTLGPLPQVDGVQTQQTAEVI"}}}
{"variants_of": "B1", "settings": "with dazp2_human DAZAP2, Q15038"}
{"variant": "I16V", "effect of a mutation on the interaction": "with no effect"}
{"variant": "P177S", "effect of a mutation on the interaction": "with no effect"}
{"variant": "Y68H", "effect of a mutation on the interaction": "with no effect"}
{"variants_of": "B2", "settings": "with isl1_human ISL1, P61371"}
{"variant": "N328S", "effect of a mutation on the interaction": "with no effect"}
{"variants_of": "B3", "settings": "with ercc1_human ERCC1, P07992"}
{"variant": "M151I", "effect of a mutation on the interaction": "with no effect"}
{"variants_of": "B4", "settings": "with fxr2_human FXR2, P51116"}
{"variant": "G260R", "effect of a mutation on the interaction": "disrupting interaction strength"}
{"variants_of": "B5", "settings": "with nlk_human NLK"}
{"variant": "R19W", "effect of a mutation on the interaction": "with no effect"}
{"variants_of": "B6", "settings": "with myg1_human MYG1, Q9HB07"}
{"variant": "R23H", "effect of a mutation on the interaction": "with no effect"}
{"variants_of": "B7", "settings": "with atosb_human ATOSB"}
{"variant": "S44F", "effect of a mutation on the interaction": "disrupting interaction strength"}
{"variants_of": "B8", "settings": "with ccdb1_human CCNDBP1, O95273"}
{"variant": "P649L", "effect of a mutation on the interaction": "with no effect"}
{"variant": "M429T", "effect of a mutation on the interaction": "with no effect"}
